According to US20020160011A1, “ADJUVANT COMPOSITIONS FOR VACCINES” (priority 1997, published 2002):

B1: IL12: murine IL12 purified from the supernatant of transfected P1HTR cells; heterodimeric cytokine (protein, UniProt P43431 23-215; P43432 23-335, looked up)
Interleukin-12 subunit alpha: RVIPVSGPARCLSQSRNLLKTTDDMVKTAREKLKHYSCTAEDIDHEDITRDQTSTLKTCLPLELHKNESCLATRETSSTTRGSCLPPQKTSLMMTLCLGSIYEDLKMYQTEFQAINAALQNHNHQQIILDKGMLVAIDELMQSLNHNGETLRQKPPVGEADPYRVKMKLCILLHAFSTRVVTINRVMGYLSSA
Interleukin-12 subunit beta: MWELEKDVYVVEVDWTPDAPGETVNLTCDTPEEDDITWTSDQRHGVIGSGKTLTITVKEFLDAGQYTCHKGGETLSHSHLLLHKKENGIWSTEILKNFKNKTFLKCEAPNYSGRFTCSWLVQRNMDLKFNIKSSSSSPDSRAVTCGMASLSAEKVTLDQRDYEKYSVSCQEDVTCPTAEETLPIELALEARQQNKYENYSTSFFIRDIIKPDPPKNLQMKPLKNSQVEVSWEYPDSWSTPHSYFSLKFFVRIQRKKEKMKETEEGCNQKGAFLVEKTSTEVQCKGGNVCVQAQDRYYNSSCSKWACVPCRVRS
B2: IL-7: other cytokine tested with the QS21/MPL adjuvant (protein, UniProt P13232 26-177, looked up)
Interleukin-7: DCDIEGKDGKQYESVLMVSIDQLLDSMKEIGSNCLNNEFNFFKRHICDANKEGMFLFRAARKLRQFLKMNSTGDFDLHLLKVSEGTTILLNCTGQVKGRKPAALGEAQPTKSLEENKSLKEQKKLNDLCFLKRLLQEIKTCWNKILMGTKEH

Experiments:
[1] = Ability of other cytokines to enhance the effect of the QS21/MPL adjuvant; settings: cytokine added in place of IL-12
[2] = Systemic toxicity of locally injected IL12 in immunised mice; format: in vivo

Row | Molecule | enhancement of the effect of the QS21/MPL adjuvant [1] | systemic toxicity ([2]; decreased IL12 dose ('at that dose', b48: 10ng or 30 ng as printed)) | systemic toxic effects ([2]; high dose of IL12 (100ng (1000U)/mouse/day), P1A experiment) | systemic toxicity ([2]; high dose of IL12 (1μg/mouse/day), injected locally, P198 experiments)
1 | GM-CSF: other cytokine tested with the QS21/MPL adjuvant | unable to enhance |  |  | 
2 | IFN-γ: other cytokine tested with the QS21/MPL adjuvant | unable to enhance |  |  | 
3 | IL-6: other cytokine tested with the QS21/MPL adjuvant | unable to enhance |  |  | 
4 | B1 |  | largely reduced but not totally absent | we observed systemic toxic effects | systemic toxicity with symptoms similar to those observed in a LPS shock
5 | B2 | unable to enhance |  |  | 
